# Target: CDK2 kinase complex (cyclin not given) (UniProt P24941)
# Assay: cell-based or functional assay
Substance,"induced kinase activity, percent of that by full length E7",relative kinase activity compared to full length E7,"CDK2 activation, percent of that of full length E7 (one experiment)","CDK2 activation, percent of that of full length E7 (repeat experiment)",relative kinase activity compared to activity in the presence of full length E7,% Control Activation of CDK2,"% Control Activation of CDK2, Exp. 1","% Control Activation of CDK2, Exp. 2"
GST-16E7 (16-38) (from UniProt P08515 1-218; P03129 16-38),53%,–,–,–,–,–,–,–
GST-16E7(1-15) (from UniProt P03129 1-15),–,15%,–,–,–,–,–,–
GST-16E7(1-27) (from UniProt P03129 1-27),–,–,28.6%,52%,–,–,–,–
GST-16E7(1-38) (from UniProt P03129 1-38),–,–,–,–,72%,–,–,–
GST-16E7(1-48) (from UniProt P03129 1-48),–,–,–,–,73.2%,–,–,–
GST-16E7(1-69) (from UniProt P03129 1-69),–,–,–,–,82.5%,–,–,–
GST-16E7(1-87) (from UniProt P03129 1-87),–,–,–,–,76.7%,–,–,–
GST-E7 (20-48) (from UniProt P03129 20-48),33%,–,–,–,–,–,–,–
GST-HPV16 E7 ?9-13 (from UniProt P03129 1-8; P03129 14-98),–,–,–,–,–,90%,–,–
"GST-HPV16 E7 ?9-13, ?A34-37 (from UniProt P03129 1-8; P03129 14-33; P03129 38-98)",–,–,–,–,–,72%,–,–
"GST-HPV16 E7 ?12; ?24, 26 (from UniProt P03129 1-98)",–,–,–,–,–,–,85.2%,93.5%
"GST-HPV16 E7 ?12; ?24, 26; ?31, 32 (from UniProt P03129 1-98)",–,–,–,–,–,–,–,83.1%
GST-HPV16 E7 ?13-15 (from UniProt P03129 1-12; P03129 16-98),–,–,–,–,–,76%,–,–
GST-HPV16 E7 ?22-26 (from UniProt P03129 1-21; P03129 27-98),–,–,–,–,–,85%,–,–
"GST-HPV16 E7 ?22-26, ?31-37 (from UniProt P03129 1-21; P03129 27-30; P03129 38-98)",–,–,–,–,–,72%,–,–
"GST-HPV16 E7 ?24, 26; ?31, 32 (from UniProt P03129 1-98)",–,–,–,–,–,–,88.2%,95.6%
"GST-HPV16 E7 ?24, 26; ?31, 32; ?91 (from UniProt P03129 1-98)",–,–,–,–,–,–,–,70.6%
"GST-HPV16 E7 ?24, 26; ?91 (from UniProt P03129 1-98)",–,–,–,–,–,–,69.4%,86.4%
GST-HPV16 E7 ?31-37 (from UniProt P03129 1-30; P03129 38-98),–,–,–,–,–,80%,–,–
GST-HPV16 E7 ?34-37 (from UniProt P03129 1-33; P03129 38-98),–,–,–,–,–,80%,–,–
"GST-HPV16 E7 C24, E26→S24, D26 (from UniProt P03129 1-98)",–,–,–,–,–,–,86.7%,81.3%
GST-HPV16 E7 C91→W91 (from UniProt P03129 1-98),–,–,–,–,–,–,81.7%,78.7%
GST-HPV16 E7 M12→L12 (from UniProt P03129 1-98),–,–,–,–,–,–,96.7%,–
"GST-HPV16 E7 S31, S32→G31, G32 (from UniProt P03129 1-98)",–,–,–,–,–,–,77.1%,–

# Target: cyclin A/CDK2 complex (UniProt P20248)
# Assay: cell-based or functional assay
Substance,"activation of cyclinA/CDK2, percent of full length E7","activation of cyclinA/CDK2, percent of full length E7 (repeat experiment)","activation of cyclinA/CDK2, percent of full length GST-HPV 16 E7"
GST-HPV16-E7(9-98) (from UniProt P03129 9-98),64%,–,–
GST-HPV16-E7(16-98) (from UniProt P03129 16-98),53%,–,–
GST-HPV16-E7(39-98) (from UniProt P03129 39-98),–,18%,28.6%

# Source: patent publication US20010029022A1
